The record followed here is patent publication US20240148841A1.

For the test, the target named is human IgG (of human serum; IgG against AAV8 in AAV8 positive human serum pools CP16 and P1) (human). Description: cell-based or functional assay.

B1: Xork1.3-Fc-HD-H435R (Fc fusion)
chain: MTLWADGVQVDDKDFKPSTENFGTNYLAAEYGIGKGYYDINKKFDGTDDDLCSGVVAANQLHWWLDRNKDYIEKYRQQSKDNGVTIGNTDIFELNKLHDEDQSNFFDFIKKSFGNKFLQPERLLNMYINGYGYLTSQDKAKTSQPSPSKLNFFQKVFKNNLLTDKTPINDIDEFSSQTKNALQNHKVLAVSFASIKNRGLGHVVTVWGADFDENGKVVALYVTDSDDRSKNIGNAKLGMKKLRIEVSAQDSSTIKLTGFEDKNSGGSLRHLYSLSTGEQIWKKYFEETEPKSSDKTHTCPPCPAPELLSSPSVFLFPPKPKDTLMISRTPEVTCVVVDVSHEDPEVKFNWYVDGVEVHNAKTKPREEQYNSTYRVVSVLTVLHQDWLNGKEYKCKVSNKALPAPIEKTISKAKGQPREPQVYTLPPSRDELTKNQVSLTCLVKGFYPSDIAVEWESNGQPENNYKTTPPVLDSDGSFFLYSKLTVDKSRWQQGNVFSCSVMHEALHNRYTQKSLSLSPG
As to B1, the SEAP levels in passively immunized mice (% lower than in non-immunized controls) came out at 20.
